Molecular target: the molecule itself
Assay: SEC; analytical gel filtration of hDHTKD1_(45–919) WT and p.R715C alone; 20 mM HEPES pH 7.5, 150 mM NaCl, 0.5 mM TCEP

B1: human DHTKD1 residues 45-919, p.R715C variant, His-tagged (enzyme, UniProt Q96HY7 45-919, looked up)
chain: GALERPPVDHGLARLVTVYCEHGHKAAKINPLFTGQALLENVPEIQALVQTLQGPFHTAGLLNMGKEEASLEEVLVYLNQIYCGQISIETSQLQSQDEKDWFAKRFEELQKETFTTEERKHLSKLMLESQEFDHFLATKFSTVKRYGGEGAESMMGFFHELLKMSAYSGITDVIIGMPHRGRLNLLTGLLQFPPELMFRKMRGLSEFPENFSATGDVLSHLTSSVDLYFGAHHPLHVTMLPNPSHLEAVNPVAVGKTRGRQQSRQDGDYSPDNSAQPGDRVICLQVHGDASFCGQGIVPETFTLSNLPHFRIGGSVHLIVNNQLGYTTPAERGRSSLYCSDIGKLVGCAIIHVNGDSPEEVVRATRLAFEYQRQFRKDVIIDLLCYRQWGHNELDEPFYTNPIMYKIIRARKSIPDTYAEHLIAGGLMTQEEVSEIKSSYYAKLNDHLNNMAHYRPPALNLQAHWQGLAQPEAQITTWSTGVPLDLLRFVGMKSVEVPRELQMHSHLLKTHVQSRMEKMMDGIKLDWATAEALALGSLLAQGFNVRLSGQDVGRGTFSQRHAIVVCQETDDTYIPLNHMDPNQKGFLEVSNSPLSEEAVLGFEYGMSIESPKLLPLWEAQFGDFFNGAQIIFDTFISGGEAKWLLQSGIVILLPHGYDGAGPDHSSCRIECFLQMCDSAEEGVDGDTVNMFVVHPTTPAQYFHLLRRQMVRNFRKPLIVASPKMLLRLPAAVSTLQEMAPGTTFNPVIGDSSVDPKKVKTLVFCSGKHFYSLVKQRESLGAKKHDFAIIRVEELCPFPLDSLQQEMSKYKHVKDHIWSQEEPQNMGPWSFVSPRFEKQLACKLRLVGRPPLPVPAVGIGTVHLHQHEDILAKTFA
notes: PDB 6sy1 is the wild-type parent of the same limits; source: E. coli BL21(DE3)R3-Rosetta, purified
  binding result: binds
